The values below come from PMC8876999.

Holding throughout (assay): purified protein
What all share (assay type): biochemical, Homo sapiens

Substrate in series [1]: NC(=O)c1ccc[n+]([C@@H]2O[C@H](COP(=O)(O)OP(=O)(O)OC[C@H]3O[C@@H](n4cnc5c(N)ncnc54)[C@H](OP(=O)(O)O)[C@@H]3O)[C@@H](O)[C@H]2O)c1
The conditions noted are these: 60 mM L-T4C, pH 7.5, Tris-HCl, varied: cofactor.

Substrate in series [2]: NC(=O)c1ccc[n+]([C@@H]2O[C@H](COP(=O)(O)OP(=O)(O)OC[C@H]3O[C@@H](n4cnc5c(N)ncnc54)[C@H](O)[C@@H]3O)[C@@H](O)[C@H]2O)c1
The conditions noted are these: 60 mM L-T4C, pH 7.5, Tris-HCl, varied: cofactor.

Substrate in series [3]: O=C(O)[C@@H]1CSCN1
The conditions noted are these: 1 mM NADP+, pH 7.5, Tris-HCl, L-T4C 0-25 mM.

B1: PYCR2 (Homo sapiens) (protein)
chain: MSVGFIGAGQLAYALARGFTAAGILSAHKIIASSPEMNLPTVSALRKMGVNLTRSNKETVKHSDVLFLAVKPHIIPFILDEIGADVQARHIVVSCAAGVTISSVEKKLMAFQPAPKVIRCMTNTPVVVQEGATVYATGTHALVEDGQLLEQLMSSVGFCTEVEEDLIDAVTGLSGSGPAYAFMALDALADGGVKMGLPRRLAIQLGAQALLGAAKMLLDSEQHPCQLKDNVCSPGGATIHALHFLESGGFRSLLINAVEASCIRTRELQSMADQEKISPAALKKTLLDRVKLESPTVSTLTPSSPGKLLTRSLALGGKKD
On to B1, for which, in series [1], the Km (usually the concentration of substrate that gives half-maximal velocity) was found to be 530 ± 120 µM; the kcat (in general, the number of substrate molecules converted per active site and unit of time at saturation) is 0.46 ± 0.02 s⁻¹; the kcat/Km (usually the turnover number divided by the Michaelis constant) was 857 ± 224 M⁻¹ s⁻¹. Moreover, in series [2], the Michaelis constant (Km) amounted to 660 ± 110 µM, the kcat is 0.36 ± 0.13 s⁻¹ and the kcat/Km was 551 ± 223 M⁻¹ s⁻¹. In series [3], the Km stood at 6800 ± 900 µM, the kcat was determined as 0.92 ± 0.04 s⁻¹ and the kcat/Km stood at 136 ± 19 M⁻¹ s⁻¹.
